{"source": "paper PMC2597643", "about": "(Nature, 2008)", "key": {"Orai (in HEK-293 cells)": {"molecular_target": "Orai (in HEK-293 cells) (UniProt Q9U6B8)", "test": "native gel or EMSA"}, "cross-linking": {"molecular_target": "the molecule itself", "test": "cross-linking"}, "[1]": {"molecular_target": "the molecule itself", "test": "single-molecule photobleaching"}}, "note": "Several values for one entry are separate records, joined by “and”; a condition that tells them apart may be missing. Equal entries are not always repeated."}
{"molecule": "Orai (in HEK-293 cells) (from UniProt Q9U6B8 1-351) (natural protein)", "values": [{"measurement": "stoichiometry N", "setting": "Orai (in HEK-293 cells)", "value": 2}]}
{"molecule": "HA-tagged Orai (natural protein) MSVWTTANNSGLETPTKSPITSSVPRAARSSAVITTGNHQQHHFQHVVAAAVAAATSVATGHQFQQQFPLHAHPHPQHHSNSPTGSGSNSNNSAGFQRTSISNSLLQFPPPPPPSSQNQAKPRGHHRTASSSMSQSGEDLHSPTYLSWRKLQLSRAKLKASSKTSALLSGFAMVAMVEVQLDHDTNVPPGMLIAFAICTTLLVAVHMLALMISTCILPNIETVCNLHSISLVHESPHERLHWYIETAWAFSTLLGLILFLLEIAILCWVKFYDLSPPAAWSACVVLIPVMIIFMAFAIHFYRSLVSHKYEVTVSGIRELEMLKEQMEQDHLEHHNNIRNNGMNYGASGDIV", "values": [{"measurement": "stoichiometry N", "setting": "cross-linking", "value": 2}]}
{"molecule": "GFP-Flag-Orai (in Xenopus oocytes) (natural protein) MSVWTTANNSGLETPTKSPITSSVPRAARSSAVITTGNHQQHHFQHVVAAAVAAATSVATGHQFQQQFPLHAHPHPQHHSNSPTGSGSNSNNSAGFQRTSISNSLLQFPPPPPPSSQNQAKPRGHHRTASSSMSQSGEDLHSPTYLSWRKLQLSRAKLKASSKTSALLSGFAMVAMVEVQLDHDTNVPPGMLIAFAICTTLLVAVHMLALMISTCILPNIETVCNLHSISLVHESPHERLHWYIETAWAFSTLLGLILFLLEIAILCWVKFYDLSPPAAWSACVVLIPVMIIFMAFAIHFYRSLVSHKYEVTVSGIRELEMLKEQMEQDHLEHHNNIRNNGMNYGASGDIV", "values": [{"measurement": "stoichiometry N", "setting": "[1]", "value": "2 and 4"}]}
